According to patent US20240279309A1 (Molecular Partners, published 2024):

B1: SMA091 (SEQ ID NO: 103) (designed binder)
chain: MRGSHHHHHHGSDLGKKLLEAARAGQDDEVRELLKAGADVNAKDYFSHTPLHLAARNGHLKIVEVLLKAGADVNAKDFAGKTPLHLAAADGHLEIVEVLLKAGADVNAQDIFGKTPADIAADAGHEDIAEVLQKAAGSPTPTPTTPTPTPTTPTPTPTGSDLGEKLLVAALYGQDDEVRELLKAGADVNAKDQWGLTPLHKAALQGHLEIVEVLLKAGADVNAKDERGHTPLHWAARFGHLEIVEVLLKAGADVNAQDQKGYTPADLAALWGHEDIAEVLQKAAGSPTPTPTTPTPTPTTPTPTPTGSDLGKKLLQAARAGQLDEVRELLKAGADVNAKDTWGFTPLHIAAESGHLEIVEVLLKAGADVNAKDVQGRTPLHIAAHSGHLEIVEVLLKAGADVNAKDFRGWTPLHLAAWSGHLEIVEILLKAGADVNAQDKSGKTPADLAARAGHQDIAEVLQKAAGSPTPTPTTPTPTPTTPTPTPTGSDLGKKLLQAARAGQLDEVRELLKAGADVNAKDTWGFTPLHIAAESGHLEIVEVLLKAGADVNAKDVQGRTPLHIAAHSGHLEIVEVLLKAGADVNAKDFRGWTPLHLAAWSGHLEIVEILLKAGADVNAQDKSGKTPADLAARAGHQDIAEVLQKAA
B2: SMA095 (SEQ ID NO: 101) (designed binder)
chain: MRGSHHHHHHGSDLGKKLLEAARAGQDDEVRELLKAGADVNAKDYFSHTPLHLAARNGHLKIVEVLLKAGADVNAKDFAGKTPLHLAAADGHLEIVEVLLKAGADVNAQDIFGKTPADIAADAGHEDIAEVLQKAAGSPTPTPTTPTPTPTTPTPTPTGSDLGEKLLVAALYGQDDEVRELLKAGADVNAKDQWGLTPLHKAALQGHLEIVEVLLKAGADVNAKDERGHTPLHWAARFGHLEIVEVLLKAGADVNAQDQKGYTPADLAALWGHEDIAEVLQKAAGSPTPTPTTPTPTPTTPTPTPTGSDLGKKLLQAARAGQLDEVRELLKAGADVNAKDTWGFTPLHIAAESGHLEIVEVLLKAGADVNAKDVQGRTPLHIAAHSGHLEIVEVLLKAGADVNAKDFRGWTPLHLAAWSGHLEIVEILLKAGADVNAQDKSGKTPADLAARAGHQDIAEVLQKAAGSPTPTPTTPTPTPTTPTPTPTGSDLGKKLLEAARAGQDDEVRELLKAGADVNAKDYFSHTPLHLAARNGHLKIVEVLLKAGADVNAKDFAGKTPLHLAAADGHLEIVEVLLKAGADVNAQDIFGKTPADIAADAGHEDIAEVLQKAA

How the values were obtained:
Test in all cases: cell-based or functional assay
[1] = molecular target: T1, CD40 receptor on cells (HEK293 reporter cells expressing CD40; primary human B cells) (human, UniProt P25942 21-277)
[2] = molecular target: T1, CD40 receptor on cells (HEK293 reporter …); remark: listed apart in the source
[3] = molecular target: T1, CD40 receptor on cells (HEK293 reporter …); remark: listed apart in the source

T1 sequence (P25942 21-277): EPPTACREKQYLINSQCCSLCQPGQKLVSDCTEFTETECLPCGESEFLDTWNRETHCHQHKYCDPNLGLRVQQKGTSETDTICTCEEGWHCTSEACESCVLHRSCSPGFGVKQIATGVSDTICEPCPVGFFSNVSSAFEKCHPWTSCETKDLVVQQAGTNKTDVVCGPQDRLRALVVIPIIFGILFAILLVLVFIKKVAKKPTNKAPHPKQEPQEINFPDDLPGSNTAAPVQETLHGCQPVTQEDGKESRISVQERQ

| Binder | EC50 [nM], % CD86, human B cells with FAP-CHO, w HSA [1] [nM] | EC50 [nM], % CD86, human B cells with FAP-CHO, w/o HSA [1] [nM] | EC50 [nM], MFI CD86, human B cells with FAP-CHO, w HSA [1] [nM] | EC50 [nM], MFI CD86, human B cells with FAP-CHO, w/o HSA [1] [nM] | Efficacy [MFI at highest dose], MFI CD86, human B cells with FAP-CHO, w HSA [2] [MFI] | Efficacy [MFI at highest dose], MFI CD86, human B cells with FAP-CHO, w/o HSA [2] [MFI] | Efficacy at highest dose, % CD86, human B cells with FAP-CHO, w HSA [2] [%] | Efficacy at highest dose, % CD86, human B cells with FAP-CHO, w/o HSA [2] [%] | Efficacy [MFI at highest dose], MFI CD86, human B cells with WT-CHO (no FAP), w HSA [3] [MFI] | Efficacy [MFI at highest dose], MFI CD86, human B cells with WT-CHO (no FAP), w/o HSA [3] [MFI] | Efficacy at highest dose, % CD86, human B cells with WT-CHO (no FAP), w HSA [3] [%] | Efficacy at highest dose, % CD86, human B cells with WT-CHO (no FAP), w/o HSA [3] [%] |
| --- | --- | --- | --- | --- | --- | --- | --- | --- | --- | --- | --- | --- |
| B1 | 2.98 | 0.76 | 8.05 | 3.93 | 2980 | 6230 | 75.6 | 78.2 | 296 | 290 | 43.1 | 47.8 |
| B2 |  | 89.8 |  | 288 | 232 | 773 |  | 28.7 | 306 | 299 | 13.7 | 12.5 |
